{
  "source": "patent US20230190867A1",
  "about": "“METHODS OF TREATING NASH AND COMPOSITIONS THEREFORE” (BIOINCEPT, LLC, priority 2018, published 2023)",
  "key": {"[1]": {"biological_target": "14-3-3 protein epsilon (Homo sapiens) (UniProt P62258)", "test": "PIF-agarose affinity extraction of normal human liver lysate 1, LC-MS/MS"}, "[2]": {"biological_target": "78 kDa glucose-regulated protein (Homo sapiens) (UniProt P11021)", "test": "PIF-agarose affinity extraction of normal human liver lysate 1, LC-MS/MS"}, "[3]": {"biological_target": "Activated RNA polymerase II transcriptional coactivator p15 (Homo sapiens) (UniProt P53999)", "test": "PIF-agarose affinity extraction of normal human liver lysate 1, LC-MS/MS"}, "[4]": {"biological_target": "Alcohol dehydrogenase 1A (Homo sapiens) (UniProt P07327)", "test": "PIF-agarose affinity extraction of normal human liver lysate 1, LC-MS/MS"}, "[5]": {"biological_target": "Alcohol dehydrogenase 1B (Homo sapiens) (UniProt P00325)", "sequence (P00325 2-375 limits assumed)": "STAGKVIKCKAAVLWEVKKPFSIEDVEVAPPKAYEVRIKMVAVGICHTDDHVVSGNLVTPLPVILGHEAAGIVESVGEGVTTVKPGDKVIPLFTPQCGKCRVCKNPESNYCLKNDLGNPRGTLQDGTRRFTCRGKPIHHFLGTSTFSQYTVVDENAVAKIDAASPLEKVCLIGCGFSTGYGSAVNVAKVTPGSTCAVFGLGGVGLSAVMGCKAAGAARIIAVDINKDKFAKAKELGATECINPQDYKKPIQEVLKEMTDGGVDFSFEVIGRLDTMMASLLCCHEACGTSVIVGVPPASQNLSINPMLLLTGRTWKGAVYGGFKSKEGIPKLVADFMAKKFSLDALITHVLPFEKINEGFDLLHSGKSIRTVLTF", "test": "PIF-agarose affinity extraction of normal human liver lysate 1, LC-MS/MS"}, "[6]": {"biological_target": "Alcohol dehydrogenase 4 (Homo sapiens) (UniProt P08319)", "sequence (P08319 whole entry)": "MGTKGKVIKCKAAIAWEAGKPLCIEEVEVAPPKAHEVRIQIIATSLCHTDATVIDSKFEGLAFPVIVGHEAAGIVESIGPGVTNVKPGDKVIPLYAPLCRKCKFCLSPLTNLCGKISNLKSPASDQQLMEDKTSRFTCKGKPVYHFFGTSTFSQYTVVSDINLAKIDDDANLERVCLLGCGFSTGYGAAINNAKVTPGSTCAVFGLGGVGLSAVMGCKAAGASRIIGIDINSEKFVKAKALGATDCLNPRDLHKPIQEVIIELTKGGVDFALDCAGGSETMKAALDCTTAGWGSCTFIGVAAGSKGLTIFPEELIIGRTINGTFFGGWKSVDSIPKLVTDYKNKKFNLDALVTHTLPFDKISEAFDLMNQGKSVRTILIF", "test": "PIF-agarose affinity extraction of normal human liver lysate 1, LC-MS/MS"}, "[7]": {"biological_target": "Alpha-actinin-4 (Homo sapiens) (UniProt O43707)", "sequence (O43707 whole entry)": "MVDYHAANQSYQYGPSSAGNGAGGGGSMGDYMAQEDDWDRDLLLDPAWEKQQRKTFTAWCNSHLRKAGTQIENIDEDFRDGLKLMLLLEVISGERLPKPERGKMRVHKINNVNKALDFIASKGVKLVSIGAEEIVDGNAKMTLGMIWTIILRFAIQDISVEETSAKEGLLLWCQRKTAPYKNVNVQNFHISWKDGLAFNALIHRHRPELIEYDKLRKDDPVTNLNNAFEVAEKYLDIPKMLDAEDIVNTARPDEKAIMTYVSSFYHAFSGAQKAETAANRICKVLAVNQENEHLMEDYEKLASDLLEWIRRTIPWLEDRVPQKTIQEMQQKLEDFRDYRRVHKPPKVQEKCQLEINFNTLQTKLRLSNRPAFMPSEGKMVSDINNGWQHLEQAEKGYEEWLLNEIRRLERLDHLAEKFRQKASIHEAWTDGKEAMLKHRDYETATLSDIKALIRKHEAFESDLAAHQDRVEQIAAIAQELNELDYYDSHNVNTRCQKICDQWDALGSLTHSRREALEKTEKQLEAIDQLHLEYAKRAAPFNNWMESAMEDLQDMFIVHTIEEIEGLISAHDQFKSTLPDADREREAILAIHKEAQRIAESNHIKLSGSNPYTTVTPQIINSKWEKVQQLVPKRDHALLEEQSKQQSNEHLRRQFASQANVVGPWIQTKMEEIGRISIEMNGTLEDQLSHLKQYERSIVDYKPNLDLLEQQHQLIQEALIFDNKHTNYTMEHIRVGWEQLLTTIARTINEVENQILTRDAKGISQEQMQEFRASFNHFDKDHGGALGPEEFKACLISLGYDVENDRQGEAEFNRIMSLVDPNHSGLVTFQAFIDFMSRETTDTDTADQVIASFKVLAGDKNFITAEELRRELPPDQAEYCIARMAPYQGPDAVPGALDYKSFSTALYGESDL", "test": "PIF-agarose affinity extraction of normal human liver lysate 1, LC-MS/MS"}, "[8]": {"biological_target": "Calmodulin (Homo sapiens) (UniProt P0DP23)", "test": "PIF-agarose affinity extraction of normal human liver lysate 1, LC-MS/MS"}, "[9]": {"biological_target": "Calreticulin (Homo sapiens) (UniProt P27797)", "sequence (P27797 18-417 limits assumed)": "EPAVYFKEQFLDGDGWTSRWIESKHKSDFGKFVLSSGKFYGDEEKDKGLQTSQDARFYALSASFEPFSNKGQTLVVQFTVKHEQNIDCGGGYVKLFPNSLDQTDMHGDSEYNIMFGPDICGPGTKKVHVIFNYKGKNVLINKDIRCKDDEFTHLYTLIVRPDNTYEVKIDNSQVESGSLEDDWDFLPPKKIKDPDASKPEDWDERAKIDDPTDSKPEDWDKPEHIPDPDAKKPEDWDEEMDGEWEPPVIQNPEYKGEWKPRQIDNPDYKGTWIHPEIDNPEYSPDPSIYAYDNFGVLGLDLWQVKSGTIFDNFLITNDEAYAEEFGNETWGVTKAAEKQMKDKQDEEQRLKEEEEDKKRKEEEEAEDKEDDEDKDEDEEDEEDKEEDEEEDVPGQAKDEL", "test": "PIF-agarose affinity extraction of normal human liver lysate 1, LC-MS/MS"}, "[10]": {"biological_target": "Cytochrome b-c1 complex subunit 6, mitochondrial (Homo sapiens) (UniProt P07919)", "sequence (P07919 14-91 limits assumed, one chain of several)": "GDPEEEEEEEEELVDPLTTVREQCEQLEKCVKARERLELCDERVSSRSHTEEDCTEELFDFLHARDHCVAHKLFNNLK", "test": "PIF-agarose affinity extraction of normal human liver lysate 1, LC-MS/MS"}, "[11]": {"biological_target": "Cytochrome b5 (Homo sapiens) (UniProt P00167)", "test": "PIF-agarose affinity extraction of normal human liver lysate 1, LC-MS/MS"}, "[12]": {"biological_target": "Cytosolic 10-formyltetrahydrofolate dehydrogenase (Homo sapiens) (UniProt O75891)", "test": "PIF-agarose affinity extraction of normal human liver lysate 1, LC-MS/MS"}, "[13]": {"biological_target": "Delta-aminolevulinic acid dehydratase (Homo sapiens) (UniProt P13716)", "sequence (P13716 whole entry, stated change not applied)": "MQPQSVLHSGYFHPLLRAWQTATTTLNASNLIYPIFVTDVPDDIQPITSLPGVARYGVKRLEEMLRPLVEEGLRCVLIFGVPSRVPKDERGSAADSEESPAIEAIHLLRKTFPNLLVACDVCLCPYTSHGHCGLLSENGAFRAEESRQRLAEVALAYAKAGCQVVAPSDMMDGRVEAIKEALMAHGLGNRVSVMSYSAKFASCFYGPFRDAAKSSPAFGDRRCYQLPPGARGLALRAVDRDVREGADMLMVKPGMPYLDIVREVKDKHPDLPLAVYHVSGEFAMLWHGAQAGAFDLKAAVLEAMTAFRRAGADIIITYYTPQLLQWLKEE", "test": "PIF-agarose affinity extraction of normal human liver lysate 1, LC-MS/MS"}, "[14]": {"biological_target": "Endoplasmin (Homo sapiens) (UniProt P14625)", "sequence (P14625 22-803 limits assumed)": "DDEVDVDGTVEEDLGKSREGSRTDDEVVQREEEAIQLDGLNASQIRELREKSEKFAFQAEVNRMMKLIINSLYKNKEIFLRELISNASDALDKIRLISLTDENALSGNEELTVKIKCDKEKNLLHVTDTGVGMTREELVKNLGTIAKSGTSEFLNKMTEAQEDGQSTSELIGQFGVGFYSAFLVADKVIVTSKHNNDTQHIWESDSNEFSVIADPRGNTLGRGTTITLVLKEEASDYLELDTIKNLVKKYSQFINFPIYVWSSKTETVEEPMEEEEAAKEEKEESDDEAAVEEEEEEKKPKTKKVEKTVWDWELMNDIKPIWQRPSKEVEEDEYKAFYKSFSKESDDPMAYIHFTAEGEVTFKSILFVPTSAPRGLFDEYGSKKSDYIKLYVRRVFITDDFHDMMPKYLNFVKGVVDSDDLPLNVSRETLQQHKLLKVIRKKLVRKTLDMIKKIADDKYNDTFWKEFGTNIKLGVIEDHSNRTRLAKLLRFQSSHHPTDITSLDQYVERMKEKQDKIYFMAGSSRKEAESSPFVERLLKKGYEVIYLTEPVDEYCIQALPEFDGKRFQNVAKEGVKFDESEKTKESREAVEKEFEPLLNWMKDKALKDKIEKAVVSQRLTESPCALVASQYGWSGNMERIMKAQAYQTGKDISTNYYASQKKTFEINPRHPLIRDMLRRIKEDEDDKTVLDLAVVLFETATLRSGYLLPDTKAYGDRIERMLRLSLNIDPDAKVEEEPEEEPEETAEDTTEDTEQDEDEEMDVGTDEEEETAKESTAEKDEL", "test": "PIF-agarose affinity extraction of normal human liver lysate 1, LC-MS/MS"}, "[15]": {"biological_target": "Enoyl-CoA hydratase domain-containing protein 2, mitochondrial (Homo sapiens) (UniProt Q86YB7)", "test": "PIF-agarose affinity extraction of normal human liver lysate 1, LC-MS/MS"}, "[16]": {"biological_target": "Hepatoma-derived growth factor (Homo sapiens) (UniProt P51858)", "sequence (P51858 whole entry)": "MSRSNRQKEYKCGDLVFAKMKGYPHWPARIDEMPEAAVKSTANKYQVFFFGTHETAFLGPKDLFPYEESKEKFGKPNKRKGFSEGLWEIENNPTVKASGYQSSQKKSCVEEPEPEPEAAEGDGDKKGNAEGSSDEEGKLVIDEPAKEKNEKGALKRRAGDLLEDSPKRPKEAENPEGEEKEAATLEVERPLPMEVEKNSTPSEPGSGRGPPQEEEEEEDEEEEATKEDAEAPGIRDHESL", "test": "PIF-agarose affinity extraction of normal human liver lysate 1, LC-MS/MS"}, "[17]": {"biological_target": "Membrane-associated progesterone receptor component 1 (Homo sapiens) (UniProt O00264)", "sequence (O00264 whole entry)": "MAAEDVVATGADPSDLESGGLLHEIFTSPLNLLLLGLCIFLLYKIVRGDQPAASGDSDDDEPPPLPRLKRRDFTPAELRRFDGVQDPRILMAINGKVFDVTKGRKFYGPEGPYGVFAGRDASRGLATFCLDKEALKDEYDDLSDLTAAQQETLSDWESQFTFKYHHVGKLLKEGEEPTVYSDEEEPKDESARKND", "test": "PIF-agarose affinity extraction of normal human liver lysate 1, LC-MS/MS"}, "[18]": {"biological_target": "Parathymosin (Homo sapiens) (UniProt P20962)", "sequence (P20962 2-102 limits assumed)": "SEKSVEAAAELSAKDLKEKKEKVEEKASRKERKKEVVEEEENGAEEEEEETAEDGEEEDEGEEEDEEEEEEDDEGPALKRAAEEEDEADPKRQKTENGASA", "test": "PIF-agarose affinity extraction of normal human liver lysate 1, LC-MS/MS"}, "[19]": {"biological_target": "Peroxiredoxin-1 (Homo sapiens) (UniProt Q06830)", "sequence (Q06830 2-199 limits assumed)": "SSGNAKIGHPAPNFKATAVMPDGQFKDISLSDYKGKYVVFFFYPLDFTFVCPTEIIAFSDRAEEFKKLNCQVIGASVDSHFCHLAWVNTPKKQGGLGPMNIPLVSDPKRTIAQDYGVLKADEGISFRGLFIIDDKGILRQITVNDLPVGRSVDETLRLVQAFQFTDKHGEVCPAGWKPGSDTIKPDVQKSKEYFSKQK", "test": "PIF-agarose affinity extraction of normal human liver lysate 1, LC-MS/MS"}, "[20]": {"biological_target": "Protein disulfide-isomerase (Homo sapiens) (UniProt P07237)", "test": "PIF-agarose affinity extraction of normal human liver lysate 1, LC-MS/MS"}, "[21]": {"biological_target": "Protein disulfide-isomerase A3 (Homo sapiens) (UniProt P30101)", "test": "PIF-agarose affinity extraction of normal human liver lysate 1, LC-MS/MS"}, "[22]": {"biological_target": "Protein disulfide-isomerase A4 (Homo sapiens) (UniProt P13667)", "test": "PIF-agarose affinity extraction of normal human liver lysate 1, LC-MS/MS"}, "[23]": {"biological_target": "Transitional endoplasmic reticulum ATPase (Homo sapiens) (UniProt P55072)", "sequence (P55072 2-806 limits assumed)": "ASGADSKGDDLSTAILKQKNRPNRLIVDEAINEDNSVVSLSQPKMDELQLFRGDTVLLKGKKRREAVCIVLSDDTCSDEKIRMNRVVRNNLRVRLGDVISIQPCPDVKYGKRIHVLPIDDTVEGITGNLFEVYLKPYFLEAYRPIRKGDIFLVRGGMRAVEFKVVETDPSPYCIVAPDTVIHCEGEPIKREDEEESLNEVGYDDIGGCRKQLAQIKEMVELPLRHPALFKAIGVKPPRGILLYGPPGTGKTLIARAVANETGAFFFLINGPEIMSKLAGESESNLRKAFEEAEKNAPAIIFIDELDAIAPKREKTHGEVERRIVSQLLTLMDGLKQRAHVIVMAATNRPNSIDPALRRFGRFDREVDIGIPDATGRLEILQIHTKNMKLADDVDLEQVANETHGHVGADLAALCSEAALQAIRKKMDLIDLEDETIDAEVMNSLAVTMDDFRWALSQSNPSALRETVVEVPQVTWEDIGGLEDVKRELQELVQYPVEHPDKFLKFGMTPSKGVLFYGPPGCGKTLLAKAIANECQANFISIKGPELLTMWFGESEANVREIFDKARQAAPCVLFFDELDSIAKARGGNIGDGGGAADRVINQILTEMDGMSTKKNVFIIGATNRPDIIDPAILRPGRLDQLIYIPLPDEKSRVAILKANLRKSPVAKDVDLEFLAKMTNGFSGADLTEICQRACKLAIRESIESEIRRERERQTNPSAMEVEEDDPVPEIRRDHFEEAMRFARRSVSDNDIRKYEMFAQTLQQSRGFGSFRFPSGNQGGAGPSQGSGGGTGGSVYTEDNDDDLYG", "test": "PIF-agarose affinity extraction of normal human liver lysate 1, LC-MS/MS"}, "[24]": {"biological_target": "Tropomyosin alpha-4 chain (Homo sapiens) (UniProt P67936)", "test": "PIF-agarose affinity extraction of normal human liver lysate 1, LC-MS/MS"}, "Vimentin (Homo sapiens)": {"biological_target": "Vimentin (Homo sapiens) (UniProt P08670)", "test": "PIF-agarose affinity extraction of normal human liver lysate 1, LC-MS/MS"}, "[25]": {"biological_target": "78 kDa glucose-regulated protein (Homo sapiens) (UniProt P11021)", "test": "PIF-agarose affinity extraction of normal human liver lysate 2, LC-MS/MS"}, "[26]": {"biological_target": "Activated RNA polymerase II transcriptional coactivator p15 (Homo sapiens) (UniProt P53999)", "test": "PIF-agarose affinity extraction of normal human liver lysate 2, LC-MS/MS"}, "[27]": {"biological_target": "Alcohol dehydrogenase 1B (Homo sapiens) (UniProt P00325)", "test": "PIF-agarose affinity extraction of normal human liver lysate 2, LC-MS/MS"}, "[28]": {"biological_target": "Alcohol dehydrogenase 4 (Homo sapiens) (UniProt P08319)", "test": "PIF-agarose affinity extraction of normal human liver lysate 2, LC-MS/MS"}, "[29]": {"biological_target": "Alpha-actinin-4 (Homo sapiens) (UniProt O43707)", "test": "PIF-agarose affinity extraction of normal human liver lysate 2, LC-MS/MS"}, "[30]": {"biological_target": "Calreticulin (Homo sapiens) (UniProt P27797)", "test": "PIF-agarose affinity extraction of normal human liver lysate 2, LC-MS/MS"}, "[31]": {"biological_target": "Cytochrome b-c1 complex subunit 6, mitochondrial (Homo sapiens) (UniProt P07919)", "test": "PIF-agarose affinity extraction of normal human liver lysate 2, LC-MS/MS"}, "[32]": {"biological_target": "Delta-aminolevulinic acid dehydratase (Homo sapiens) (UniProt P13716)", "test": "PIF-agarose affinity extraction of normal human liver lysate 2, LC-MS/MS"}, "[33]": {"biological_target": "Endoplasmin (Homo sapiens) (UniProt P14625)", "test": "PIF-agarose affinity extraction of normal human liver lysate 2, LC-MS/MS"}, "[34]": {"biological_target": "Hepatoma-derived growth factor (Homo sapiens) (UniProt P51858)", "test": "PIF-agarose affinity extraction of normal human liver lysate 2, LC-MS/MS"}, "[35]": {"biological_target": "Parathymosin (Homo sapiens) (UniProt P20962)", "test": "PIF-agarose affinity extraction of normal human liver lysate 2, LC-MS/MS"}, "[36]": {"biological_target": "Peroxiredoxin-1 (Homo sapiens) (UniProt Q06830)", "test": "PIF-agarose affinity extraction of normal human liver lysate 2, LC-MS/MS"}, "[37]": {"biological_target": "Transitional endoplasmic reticulum ATPase (Homo sapiens) (UniProt P55072)", "test": "PIF-agarose affinity extraction of normal human liver lysate 2, LC-MS/MS"}},
  "data": [
    {"substance": "sPIF-1(15) (peptide)", "values": [
      {"measurement": "% Coverage of the unique peptides observed", "setting": "[1]", "value": 78, "unit": "%"},
      {"measurement": "% Coverage of the unique peptides observed", "setting": "[2]", "value": 55, "unit": "%"},
      {"measurement": "% Coverage of the unique peptides observed", "setting": "[3]", "value": 45, "unit": "%"},
      {"measurement": "% Coverage of the unique peptides observed", "setting": "[4]", "value": 48, "unit": "%"},
      {"measurement": "% Coverage of the unique peptides observed", "setting": "[5]", "value": 47, "unit": "%"},
      {"measurement": "% Coverage of the unique peptides observed", "setting": "[6]", "value": 53, "unit": "%"},
      {"measurement": "% Coverage of the unique peptides observed", "setting": "[7]", "value": 48, "unit": "%"},
      {"measurement": "% Coverage of the unique peptides observed", "setting": "[8]", "value": 46, "unit": "%"},
      {"measurement": "% Coverage of the unique peptides observed", "setting": "[9]", "value": 63, "unit": "%"},
      {"measurement": "% Coverage of the unique peptides observed", "setting": "[10]", "value": 53, "unit": "%"},
      {"measurement": "% Coverage of the unique peptides observed", "setting": "[11]", "value": 49, "unit": "%"},
      {"measurement": "% Coverage of the unique peptides observed", "setting": "[12]", "value": 64, "unit": "%"},
      {"measurement": "% Coverage of the unique peptides observed", "setting": "[13]", "value": 47, "unit": "%"},
      {"measurement": "% Coverage of the unique peptides observed", "setting": "[14]", "value": 47, "unit": "%"},
      {"measurement": "% Coverage of the unique peptides observed", "setting": "[15]", "value": 45, "unit": "%"},
      {"measurement": "% Coverage of the unique peptides observed", "setting": "[16]", "value": 60, "unit": "%"},
      {"measurement": "% Coverage of the unique peptides observed", "setting": "[17]", "value": 46, "unit": "%"},
      {"measurement": "% Coverage of the unique peptides observed", "setting": "[18]", "value": 58, "unit": "%"},
      {"measurement": "% Coverage of the unique peptides observed", "setting": "[19]", "value": 57, "unit": "%"},
      {"measurement": "% Coverage of the unique peptides observed", "setting": "[20]", "value": 76, "unit": "%"},
      {"measurement": "% Coverage of the unique peptides observed", "setting": "[21]", "value": 45, "unit": "%"},
      {"measurement": "% Coverage of the unique peptides observed", "setting": "[22]", "value": 52, "unit": "%"},
      {"measurement": "% Coverage of the unique peptides observed", "setting": "[23]", "value": 52, "unit": "%"},
      {"measurement": "% Coverage of the unique peptides observed", "setting": "[24]", "value": 47, "unit": "%"},
      {"measurement": "% Coverage of the unique peptides observed", "setting": "Vimentin (Homo sapiens)", "value": 50, "unit": "%"},
      {"measurement": "% Coverage of the unique peptides observed", "setting": "[25]", "value": 51, "unit": "%"},
      {"measurement": "% Coverage of the unique peptides observed", "setting": "[26]", "value": 44, "unit": "%"},
      {"measurement": "% Coverage of the unique peptides observed", "setting": "[27]", "value": 54, "unit": "%"},
      {"measurement": "% Coverage of the unique peptides observed", "setting": "[28]", "value": 52, "unit": "%"},
      {"measurement": "% Coverage of the unique peptides observed", "setting": "[29]", "value": 45, "unit": "%"},
      {"measurement": "% Coverage of the unique peptides observed", "setting": "[30]", "value": 69, "unit": "%"},
      {"measurement": "% Coverage of the unique peptides observed", "setting": "[31]", "value": 53, "unit": "%"},
      {"measurement": "% Coverage of the unique peptides observed", "setting": "[32]", "value": 49, "unit": "%"},
      {"measurement": "% Coverage of the unique peptides observed", "setting": "[33]", "value": 45, "unit": "%"},
      {"measurement": "% Coverage of the unique peptides observed", "setting": "[34]", "value": 56, "unit": "%"},
      {"measurement": "% Coverage of the unique peptides observed", "setting": "[35]", "value": 48, "unit": "%"},
      {"measurement": "% Coverage of the unique peptides observed", "setting": "[36]", "value": 58, "unit": "%"},
      {"measurement": "% Coverage of the unique peptides observed", "setting": "[37]", "value": 51, "unit": "%"}
    ]}
  ]
}
